Data from publication PMC9742198 (Immunity, 2022).

Molecular target: SARS-CoV-2 receptor-binding domain (ancestral RBD) (SARS-CoV-2 (ancestral), UniProt P0DTC2)
Assay: ELISA

B1: CAB-I12 (antibody, V domains shown)
VH: QVQLVQSGAEVKKPGSSVKVSCKASGDTFSRYSISWVRQAPGQGLEWMGRIIPMFATANYAQKFQGRVTITADKTTSIAYMELSSLRSEDTAVYYCARANYYYESGGYHFDNWGQGTLVTVSS
VL: EIVLTQSPGTLSLSPGERATLSCRASQSVGSSYLAWYQQKPGQAPRLLIYGASTRATGIPHRFSGSGSGTDFTLTISRLEPEDFAVYYCQQYHNSPRTFGQGTKV
Question: Does B1 bind?
Answer: binds
